Reference: the nanobody polyreactivity screen of Harvey et al. (2022)

Test: yeast display, Sf9 membrane polyspecificity reagent, FACS + sequencing; frameworks hold sequencing errors
Procedure, shortened: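 After 36–48 hours of galactose induction, yeast (Saccharomyces cerevisiae BJ5465) displaying a synthetic nanobody library were stained at 4 °C for 1 hour with 10% biotinylated, detergent-solubilized Sf9 membrane reagent. Streptavidin microbeads enriched the stained cells before FACS sorting into low and high (top ~1%) gates on anti-HA and streptavidin fluorescence. Each clone's polyreactivity label reflects its gate of origin.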

Sequence | polyreactivity (PSR sort gate)
QVQLVESGGGLVQAGGSLRLSCAASGFTFVYYAMGWYRQAPGKERELVAAISRSGGSTYYADSVKGRFTISRDNAKNTVNLQMNSLKPEDTAVYYCAARKTYGSRLSYEYWGQGTQVTVSS | high polyreactivity
QVQLVESGGGLVQAGGSLRLSCAASGFTFVYYTMGWYRPAPRKVRELVAAISSSGGRTSYADSVKGLFTISRDNAKNTVYLQMNSLKPEDTAVYYCAARAYPTWRTYYYWGQGTQVTVSS | high polyreactivity
QVQLVESGGGLVQAGGSLRLSCAASGFTFWANAMGWYRQAPGKERELVAAISWSGGSTTYADSVKGRFTISRDNAKNTVYLQMNSLKPEETAVYYCATDYGHYVTYRLSDYWGQGTQVTVSS | low polyreactivity
QVQLVESGGGLVQAGGSLRLSCAASGFTFWFYAMGWYRQAPGKEREFVAGISRRGGSTYYADSVKGRFTISRDNAKNTVYLQMNSLKPEDTAVYYCASRQFHNGVTTAGYGYWGQGTQVTVSS | high polyreactivity
QVQLVESGGGLVQAGGSLRLSCAASGFTFWRNTMGCSRQAPGKETEFVAAIDWSGGSTTYAVSVKGRFTFSRDNAKNSVYLQMNSLKPEDTAVYYCAAAERRRHYWWGQESDYWGQGTQVTVSS | low polyreactivity
QVQLVESGGGLVQAGGSLRLSCAASGFTFWRYAMGWYRQAPGKDRELVAAISWRGSSTYYADSVKGRFTISRDNAMNTVYLQMNSLKPEDTAVSYCARYQSTYDSTYNYWGQGTQVTVSS | high polyreactivity
QVQLVESGGGLVQAGGSLRLSCAASGFTFWRYAMGWYRQAPGKERELVAAISRNGGRTYYADSVKGRFTISRDNAKNTVYLQMNSLKPEDTAVYYCAADSDIEYEYWGQGTQVTVSS | high polyreactivity
QVQLVESGGGLVQAGGSLRLSCAASGFTFWRYAMGWYRQAPGKERELVAAISRTGGRTYYADSVKGRFTISRDNAKNTVYLQMNSLKPEDTAVYYCAAVKYETYRYNYDYWGQGTQVTVSS | high polyreactivity
QVQLVESGGGLVQAGGSLRLSCAASGFTFWVYAMGWYRQATGKEREFVASISWTGDTTYYADSVKGRFTISRDNAKNTVYLQMNSLKPEDTAVYYCAVDTILGYDYWGQGTQVTVSS | low polyreactivity
QVQLVESGGGLVQAGGSLRLSCAASGFTFWYNDMGWYRQAPGKEREFVAAITTSGGNTYYADSVKGRFTISRDNAKNTVYLNMNSLIPEDTAVYYCAAEEGSSDATGYDYWGQGTQVTVSS | low polyreactivity
QVQLVESGGGLVQAGGSLRLSCAASGFTFWYNDMGWYRQAPGKEREFVAAITTSGGNTYYADSVKGRFTISRDNAKNTVYLQMNSLKPEDTAVYYCAAEEGSSDATGYDYWGQGTQVTVSS | low polyreactivity
QVQLVESGGGLVQAGGSLRLSCAASGFTFWYYAMGWYRQAPGKEREFVASISWNGGRTYYADSVKGRITISRDNAKNTVYLQMNSLKPEDTAVYYCATRVIYSFTDLKGDYWGQGTLVTVSS | high polyreactivity
QVQLVESGGGLVQAGGSLRLSCAASGFTFWYYAMGWYRQAPGKERELVAAITRGGSTNYADSVKGRFTISRDNAKNTVYLQMNSLKPEDTAVYYCAKRQGYPTYRRYDYWGQGTQVTVSS | high polyreactivity
QVQLVESGGGLVQAGGSLRLSCAASGFTFWYYAMGWYRQAPGKERELVATISRGGGSTYYADSVKGRFTISRDNAKNTVYLQMNSLKPEDTAVYYCAAETVRWWWLYDYWGQGTQVTVSS | high polyreactivity
QVQLVESGGGLVQAGGSLRLSCAASGFTFWYYSMGWYRQAPGKERELVASISRTGGTTYYADSVKGRFTISRDNAKNTVYLQLNSLKPEDTAVYYCNARPKVYYREYDYWGQGTQVTVSS | high polyreactivity
QVQLVESGGGLVQAGGSLRLSCAASGFTFYANAMGWYRQAPGKERELVAAIDQSGTSTNYADSVKGRFTISRDNAKNTVYLQMNSLKPEDTAVYYCAADSSFYYYPLILFWGDYWGQGTQVTVSS | low polyreactivity

Sequence | polyreactivity (PSR sort gate)
QVQLVESGGGLVQAGGSLRLSCAASGFTFYAYAMGWYGQAPGKERELVAAITGRGGSTYYADSVKGRFTISRDNAKNTVYLQMNSLKPEDTAVYYCNKVKKSDKFNNFSNDYWGQGTQVTVSS | high polyreactivity
QVQLVESGGGLVQAGGSLRLSCAASGFTFYDYAMGWYRQAPGKEREFVAAITWSGSSTYYADSVKGRFTISRDNAKNTVYLQMNSLKPEVTAVYYCAVGPFRRRGHYPTYYRYGYWGQGTQVTVSS | high polyreactivity
QVQLVESGGGLVQAGGSLRLSCAASGFTFYFNAMGWYRQAPGKERELVAGITSGGSTNYADSVKGRFTISRDNAKNTVYLQMNSLKPEDTAVYYCATDLLNNVDYDYWGQGTQVTVSS | low polyreactivity
QVQLVESGGGLVQAGGSLRLSCAASGFTFYFYAMGWYRQAPGKERELVAAISRGGSTTYADSVKGRFTISRDNAKNTVYLQMNSLKPEDTAVYYCAVGYDIVRYSYSPFYRYDYWGQGTQVTVSS | low polyreactivity
QVQLVESGGGLVQAGGSLRLSCAASGFTFYGNAMGWYRHAPGKERELVAAIRSGGITYYADSVKGRFTISRDNAKNTVYLQMNSLKPEDTSVYYCAAYSDYYLDQWYGYWGQGTQVTVSS | low polyreactivity
QVQLVESGGGLVQAGGSLRLSCAASGFTFYGNAMGWYRQAPGKERELVAAISSRVGRTYYADSVKGRFTISRDNAKNTVYLQMNSLKPEDTAVYYCAKAPYGVRRGLYDYWGQGTQVTVSS | high polyreactivity
QVQLVESGGGLVQAGGSLRLSCAASGFTFYGNAMGWYRQAPGKERELVAAISSTGGSTFYADSVKGRFTISRDNAKNTVYLQMNSLKPEDTAVYYCAVRRYTKFRSTRYYYWGQGTQVTVSS | high polyreactivity
QVQLVESGGGLVQAGGSLRLSCAASGFTFYGYAMGWYRQAPGKERELVAAISTRGSRTYYADSVKGRFTISRDNAKNTVYLQMNSLKPEDTAVYYCARRRGPSYGLDYWGQGTQVTVSS | high polyreactivity
QVQLVESGGGLVQAGGSLRLSCAASGFTFYGYAMGWYRQAPGKERELVASINRSGGTTYYADSVKGRFTISRDNAKNTVYLQMNSLKPEDTAVYYCAASYVYRFTKYYYWGQGTQVTVSS | high polyreactivity
QVQLVESGGGLVQAGGSLRLSCAASGFTFYGYGMGWYRQAPGKERELVAGISSGGGSTIYADSVKGRFTISRDNAKNTVYLQMNSLKPEDTAVYYCAADYWPYSYDTYPAEFDYWGQGTQVTVSS | low polyreactivity
QVQLVESGGGLVQAGGSLRLSCAASGFTFYHNAMGWYRQAPGKERELVATITARGGRTYYADSVKGRFTISRDNAKNTVYLQMNSLKPVDTAVYYCNVKASRGYTYEYDYWGQGTQVTVSS | high polyreactivity
QVQLVESGGGLVQAGGSLRLSCAASGFTFYKYTMGWYRQAPGKERELVAAISARGGSTYYADSVKGRFTISRDNAKNTVYLQMNSLKPEDTSVYYCAADFWRTYGLGYDYWGQGTQVTVSS | high polyreactivity
QVQLVESGGGLVQAGGSLRLSCAASGFTFYKYVMGWYRQAPGKERELVAAITQGGGSTYYADSVKGRFTISRDNAKNTVYLQMNSLKPEDTAVYYCAAVTRGSRGVNFGYWGQGTQVTVSS | high polyreactivity
QVQLVESGGGLVQAGGSLRLSCAASGFTFYLYTIGWYRQAPWKERELVATITSDGGTNYADSVKVRFTISRDNAKNTLYLQMNSLKPEDTAVYYCNAASRRGSRKQAKYDYWGQGTQVTVSS | low polyreactivity
QVQLVESGGGLVQAGGSLRLSCAASGFTFYLYTMGWYRQAPGKERELVAAISWRGGGTYYADSVKGRFTISRDNAKNTVYLQMNSLKPEDTAVYYCAAYWRRRLDYYYWGQGTQVTVSS | high polyreactivity
